This is an account of results in publication doi:10.1101/2021.01.13.426364 (bioRxiv, 2021).

In data set [1] the target is T1, Variant Surface Glycoprotein VSG2 on living VSG2-expressing bloodstream form trypanosomes (Trypanosoma brucei, UniProt P26332). The data set is described as follows: Western blot of washed cells after incubation with nanobody.
For data set [2], the target named is T2, Variant Surface Glycoprotein VSG2, soluble purified form (Trypanosoma brucei, UniProt P26332). The data set is described as follows: crystal structure.
Data set [3] concerns the target T1, Variant Surface Glycoprotein VSG2 on …. Briefly: flow cytometry on cells.
Data set [4] addresses T2, Variant Surface Glycoprotein VSG2, …. Briefly: SEC.
The data set “crystal structure” deals with the molecule itself. The data set is described as follows: crystal structure.

B1: NB9_(VSG2) (VHH)
VHH: QVQLQESGGGLVQAGGSLRLSCTTSGLTFSNYAFSWFRQAPGEEREFVGAISWSGGRTDYADSVKGRFTISRDNAKNTFYLQMNSLKTEDTAVYYCAADLLGEGSRRSEYEYWGQGTQVTVSS
Regarding B1, the binding result in data set [1] and in data set [2] was “binds” throughout.

B2: NB9_(VSG2) sortagged with FAM (VHH)
VHH: QVQLQESGGGLVQAGGSLRLSCTTSGLTFSNYAFSWFRQAPGEEREFVGAISWSGGRTDYADSVKGRFTISRDNAKNTFYLQMNSLKTEDTAVYYCAADLLGEGSRRSEYEYWGQGTQVTVSS
Take B2: the binding result in data set [3] is listed as “binds”.

B3: NB19_(VSG2) sortagged with FAM (VHH)
VHH: QVQLQESGGGLVQAGGSLRLSCAASERTFSSLGMGWFRQGPGKEREFAAAISWSGVSTYYADSVKGRFTISRDNDKNTVYLQMNSLKPDDTAVYYCAATSSWNDMALKSAGWYEYWGQGTQVTVSS
Take B3: the binding result in data set [3] is on record as “binds”.

B4: NB19_(VSG2) mutant Y115A (VHH)
VHH: QVQLQESGGGLVQAGGSLRLSCAASERTFSSLGMGWFRQGPGKEREFAAAISWSGVSTYYADSVKGRFTISRDNDKNTVYLQMNSLKPDDTAVYYCAATSSWNDMALKSAGWYEAWGQGTQVTVSS
As to B4, the binding result in data set [4] is reported as “no binding”.

B5: NB19_(VSG2) mutant E114A (VHH)
VHH: QVQLQESGGGLVQAGGSLRLSCAASERTFSSLGMGWFRQGPGKEREFAAAISWSGVSTYYADSVKGRFTISRDNDKNTVYLQMNSLKPDDTAVYYCAATSSWNDMALKSAGWYAYWGQGTQVTVSS
For the molecule B5, the binding result in data set [4] is recorded as “no binding”.

B6: NB19_(VSG2) mutant E114/Y115A (VHH)
VHH: QVQLQESGGGLVQAGGSLRLSCAASERTFSSLGMGWFRQGPGKEREFAAAISWSGVSTYYADSVKGRFTISRDNDKNTVYLQMNSLKPDDTAVYYCAATSSWNDMALKSAGWYAAWGQGTQVTVSS
In the case of B6, the binding result in data set [4] is “no binding”.

B7: NB19_(VSG2) (VHH)
VHH: QVQLQESGGGLVQAGGSLRLSCAASERTFSSLGMGWFRQGPGKEREFAAAISWSGVSTYYADSVKGRFTISRDNDKNTVYLQMNSLKPDDTAVYYCAATSSWNDMALKSAGWYEYWGQGTQVTVSS
Take B7: the binding result in data set [1] and in data set [4] was “binds” throughout.

B8: NB11_(VSG2) mutant L100A (VHH)
VHH: QVQLQESGGGLVQAGGSLTLSCAVSGLTFSNYAMGWFRQAPGKEREFVAAITWDGGNTYYTDSVKGRFTISRDNAKNTVFLQMNSLKPEDTAVYYCAAKALGSSRYELALAGYDYWGQGTQVTVSS
In the case of B8, the binding result in data set [4] is “binds”.

B9: NB11_(VSG2) mutant S103A (VHH)
VHH: QVQLQESGGGLVQAGGSLTLSCAVSGLTFSNYAMGWFRQAPGKEREFVAAITWDGGNTYYTDSVKGRFTISRDNAKNTVFLQMNSLKPEDTAVYYCAAKLLGASRYELALAGYDYWGQGTQVTVSS
Consider B9, for which, in data set [4], the binding result is on record as “binds”.

B10: NB11_(VSG2) mutant L101A (VHH)
VHH: QVQLQESGGGLVQAGGSLTLSCAVSGLTFSNYAMGWFRQAPGKEREFVAAITWDGGNTYYTDSVKGRFTISRDNAKNTVFLQMNSLKPEDTAVYYCAAKLAGSSRYELALAGYDYWGQGTQVTVSS
Regarding B10, the binding result in data set [4] is on record as “binds”.

B11: NB11_(VSG2) triple mutant L100/L101/S103 (VHH)
VHH: QVQLQESGGGLVQAGGSLTLSCAVSGLTFSNYAMGWFRQAPGKEREFVAAITWDGGNTYYTDSVKGRFTISRDNAKNTVFLQMNSLKPEDTAVYYCAAKAAGASRYELALAGYDYWGQGTQVTVSS
For the molecule B11, in data set [4], the binding result is recorded as “no binding”.

B12: Variant Surface Glycoprotein VSG2, soluble purified form (natural protein, Trypanosoma brucei, UniProt P26332 27-459, looked up)
chain: AAEKGFKQAFWQPLCQVSEELDDQPKGALFTLQAAASKIQKMRDAALRASIYAEINHGTNRAKAAVIVANHYAMKADSGLEALKQTLSSQEVTATATASYLKGRIDEYLNLLLQTKESGTSGCMMDTSGTNTVTKAGGTIGGVPCKLQLSPIQPKRPAATYLGKAGYVGLTRQADAANNFHDNDAECRLASGHNTNGLGKSGQLSAAVTMAAGYVTVANSQTAVTVQALDALQEASGAAHQPWIDAWKAKKALTGAETAEFRNETAGIAGKTGVTKLVEEALLKKKDSEASEIQTELKKYFSGHENEQWTAIEKLISEQPVAQNLVGDNQPTKLGELEGNAKLTTILAYYRMETAGKFEVLTQKHKPAESQQQAAETEGSCNKKDQNECKSPCKWHNDAENKKCTLDKEEAKKVADETAKDGKTGNTNTTGSS
B12: in “crystal structure”, the binding result was “binds”.

B13: NB14_(VSG2) sortagged with FAM (VHH)
VHH: QVQLQESGGGLVQAGGSLRLSCEASGLTFSNYAMAWFRQAPEKEREFVAGISWTGSRTYYADSVRGRFTTSRDGHKNTVYLQMNDLKPEDTAVYLCAADLLGSGKDGTSVYEYWGQGTQVTVSS
On to B13, for which, in data set [3], the binding result is “binds”.

B14: NB14_(VSG2) (VHH)
VHH: QVQLQESGGGLVQAGGSLRLSCEASGLTFSNYAMAWFRQAPEKEREFVAGISWTGSRTYYADSVRGRFTTSRDGHKNTVYLQMNDLKPEDTAVYLCAADLLGSGKDGTSVYEYWGQGTQVTVSS
For the molecule B14, the binding result in data set [1] and in data set [2] was “binds” each time.
